The record followed here is the supplement of paper PMC5998384.

In series [1] the test system is HeLa Kyoto. Kind of series: solubility in G1/S (NP-40 vs SDS abundance) (log2 ratio); higher = more soluble. To be noted: cell cycle stage: G1/S.
The test system of series [2] is HeLa Kyoto. Kind of series: thermal stability score vs G1/S (z-score of summed log2 fold changes over temperatures); higher = more thermally stable than in G1/S.
In series [3] the test system is HeLa Kyoto. Kind of series: melting temperature (median over replicates), in situ; higher = more thermally stable.
Series [4] has as its system HeLa Kyoto. Kind of series: solubility change mitosis vs G1/S (difference of NP-40 vs SDS log2 ratios) (log2 ratio difference); higher = more soluble in mitosis.
Setting [5] is: cell cycle stage: early G1 (4.5 h after nocodazole release).
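Throughout, for melting temperature (median over replicates), in situ: HeLa Kyoto cells synchronized by double thymidine or nocodazole block, proteins quantified by TMT10plex mass spectrometry, three independent biological replicates.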
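Throughout, for solubility change mitosis vs G1/S (difference of NP-40 vs SDS log2 ratios): synchronized HeLa Kyoto cells (double thymidine block for G1/S, nocodazole release for mitosis), protein amounts in NP-40 versus SDS lysates quantified by mass spectrometry, three biological replicates.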
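Throughout, for solubility in G1/S (NP-40 vs SDS abundance): HeLa Kyoto cells arrested at G1/S by double thymidine block, proteins quantified by TMT10plex mass spectrometry in mild NP-40 versus SDS extracts, three biological replicates.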
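Throughout, for thermal stability score vs G1/S (z-score of summed log2 fold changes over temperatures): synchronized HeLa Kyoto cells, proteins quantified by TMT10plex mass spectrometry, three biological replicates, mitosis taken 0.5 h after nocodazole release, G1/S directly after double thymidine block.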

Turning to “MWPQPRLPPRPAMSEETRQSKLAAAKKKLREYQQRNSPGVPTGAKKKKKIKNGSNPETTTSGGCHSPEDTPKDNAATLQPSDDTVLPGGVPSPGASLTSMAASQNHDADNVPNLMDETKTFSSTESLRQLSQQLNGLVCESATCVNGEGPASSANLKDLESRYQQLAVALDSSYVTNKQLNITIEKLKQQNQEITDQLEEEKKECHQKQGALREQLQVHIQTIGILVSEKAELQTALAHTQHAARQKEGESEDLASRLQYSRRRVGELERALSAVSTQQKKADRYNKELTKERDALRLELYKNTQSNEDLKQEKSELEEKLRVLVTEKAGMQLNLEELQKKLEMTELLLQQFSSRCEAPDANQQLQQAMEERAQLEAHLGQVMESVRQLQMERDKYAENLKGESAMWRQRMQQMSEQVHTLREEKECSMSRVQELETSLAELRNQMAEPPPPEPPAGPSEVEQQLQAEAEHLRKELEGLAGQLQAQVQDNEGLSRLNREQEERLLELERAAELWGEQAEARRQILETMQNDRTTISRALSQNRELKEQLAELQSGFVKLTNENMEITSALQSEQHVKRELGKKLGELQEKLSELKETVELKSQEAQSLQQQRDQYLGHLQQYVAAYQQLTSEKEVLHNQLLLQTQLVDQLQQQEAQGKAVAEMARQELQETQERLEAATQQNQQLRAQLSLMAHPGEGDGLDREEEEDEEEEEEEAVAVPQPMPSIPEDLESREAMVAFFNSAVASAEEEQARLRGQLKEQRVRCRRLAHLLASAQKEPEAAAPAPGTGGDSVCGETHRALQGAMEKLQSRFMELMQEKADLKERVEELEHRCIQLSGETDTIGEYIALYQSQRAVLKERHREKEEYISRLAQDKEEMKVKLLELQELVLRLVGDRNEWHGRFLAAAQNPADEPTSGAPAPQELGAANQQGDLCEVSLAGSVEPAQGEAREGSPRDNPTAQQIMQLLREMQNPRERPGLGSNPCIPFFYRADENDEVKITVI [GOLGA2]”, the “solubility in G1/S (log2)” value in the series on HeLa Kyoto [1] was determined as 0.522. Besides, the thermal stability score in the series on HeLa Kyoto [2] (setting [5]) was determined as 1.74; with HeLa Kyoto [2] (cell cycle stage: mitosis), 3.29. The melting temperature with HeLa Kyoto [3] (cell cycle stage: G1/S) and in the series with HeLa Kyoto [3] (cell cycle stage: mitosis) was 48.9 °C throughout. In addition, the “solubility change mitosis (log2)” value with HeLa Kyoto [4] amounted to 0.0669.

With “MWRCGGRQGLCVLRRLSGGHAHHRAWRWNSNRACERALQYKLGDKIHGFTVNQVTSVPELFLTAVKLTHDDTGARYLHLAREDTNNLFSVQFRTTPMDSTGVPHILEHTVLCGSQKYPCRDPFFKMLNRSLSTFMNAFTASDYTLYPFSTQNPKDFQNLLSVYLDATFFPCLRELDFWQEGWRLEHENPSDPQTPLVFKGVVFNEMKGAFTDNERIFSQHLQNRLLPDHTYSVVSGGDPLCIPELTWEQLKQFHATHYHPSNARFFTYGNFPLEQHLKQIHEEALSKFQKIEPSTVVPAQTPWDKPREFQITCGPDSFATDPSKQTTISVSFLLPDITDTFEAFTLSLLSSLLTSGPNSPFYKALIESGLGTDFSPDVGYNGYTREAYFSVGLQGIAEKDIETVRSLIDRTIDEVVEKGFEDDRIEALLHKIEIQMKHQSTSFGLMLTSYIASCWNHDGDPVELLKLGNQLAKFRQCLQENPKFLQEKVKQYFKNNQHKLTLSMRPDDKYHEKQAQVEATKLKQKVEALSPGDRQQIYEKGLELRSQQSKPQDASCLPALKVSDIEPTIPVTELDVVLTAGDIPVQYCAQPTNGMVYFRAFSSLNTLPEELRPYVPLFCSVLTKLGCGLLDYREQAQQIELKTGGMSASPHVLPDDSHMDTYEQGVLFSSLCLDRNLPDMMQLWSEIFNNPCFEEEEHFKVLVKMTAQELANGIPDSGHLYASIRAGRTLTPAGDLQETFSGMDQVRLMKRIAEMTDIKPILRKLPRIKKHLLNGDNMRCSVNATPQQMPQTEKAVEDFLRSIGRSKKERRPVRPHTVEKPVPSSSGGDAHVPHGSQVIRKLVMEPTFKPWQMKTHFLMPFPVNYVGECIRTVPYTDPDHASLKILARLMTAKFLHTEIREKGGAYGGGAKLSHNGIFTLYSYRDPNTIETLQSFGKAVDWAKSGKFTQQDIDEAKLSVFSTVDAPVAPSDKGMDHFLYGLSDEMKQAHREQLFAVSHDKLLAVSDRYLGTGKSTHGLAILGPENPKIAKDPSWIIQ [PITRM1]”, the “solubility in G1/S (log2)” value in the series with HeLa Kyoto [1] turned out to be 0.143. Also, the thermal stability score in the series with HeLa Kyoto [2] (setting [5]) was 0.343; in the series on HeLa Kyoto [2] (cell cycle stage: mitosis), -0.944. For the same sequence, the figures for the melting temperature in the series with HeLa Kyoto [3] (cell cycle stage: G1/S) and with HeLa Kyoto [3] (cell cycle stage: mitosis) were 51.4 °C and 50.9 °C, respectively. For the same sequence, the “solubility change mitosis (log2)” value in the series with HeLa Kyoto [4] is -0.084.

For “MWRLRRAAVACEVCQSLVKHSSGIKGSLPLQKLHLVSRSIYHSHHPTLKLQRPQLRTSFQQFSSLTNLPLRKLKFSPIKYGYQPRRNFWPARLATRLLKLRYLILGSAVGGGYTAKKTFDQWKDMIPDLSEYKWIVPDIVWEIDEYIDFEKIRKALPSSEDLVKLAPDFDKIVESLSLLKDFFTSGSPEETAFRATDRGSESDKHFRKVSDKEKIDQLQEELLHTQLKYQRILERLEKENKELRKLVLQKDDKGIHHRKLKKSLIDMYSEVLDVLSDYDASYNTQDHLPRVVVVGDQSAGKTSVLEMIAQARIFPRGSGEMMTRSPVKVTLSEGPHHVALFKDSSREFDLTKEEDLAALRHEIELRMRKNVKEGCTVSPETISLNVKGPGLQRMVLVDLPGVINTVTSGMAPDTKETIFSISKAYMQNPNAIILCIQDGSVDAERSIVTDLVSQMDPHGRRTIFVLTKVDLAEKNVASPSRIQQIIEGKLFPMKALGYFAVVTGKGNSSESIEAIREYEEEFFQNSKLLKTSMLKAHQVTTRNLSLAVSDCFWKMVRESVEQQADSFKATRFNLETEWKNNYPRLRELDRNELFEKAKNEILDEVISLSQVTPKHWEEILQQSLWERVSTHVIENIYLPAAQTMNSGTFNTTVDIKLKQWTDKQLPNKAVEVAWETLQEEFSRFMTEPKGKEHDDIFDKLKEAVKEESIKRHKWNDFAEDSLRVIQHNALEDRSISDKQQWDAAIYFMEEALQARLKDTENAIENMVGPDWKKRWLYWKNRTQEQCVHNETKNELEKMLKCNEEHPAYLASDEITTVRKNLESRGVEVDPSLIKDTWHQVYRRHFLKTALNHCNLCRRGFYYYQRHFVDSELECNDVVLFWRIQRMLAITANTLRQQLTNTEVRRLEKNVKEVLEDFAEDGEKKIKLLTGKRVQLAEDLKKVREIQEKLDAFIEALHQEK [OPA1]”, the “solubility in G1/S (log2)” value with HeLa Kyoto [1] was -0.149. The thermal stability score in the series with HeLa Kyoto [2] (setting [5]) is 1.61; in the series with HeLa Kyoto [2] (cell cycle stage: mitosis) it was 0.517. Also, the melting temperature with HeLa Kyoto [3] (cell cycle stage: G1/S) was determined as 51.3 °C; with HeLa Kyoto [3] (cell cycle stage: mitosis), 51 °C. Further, the “solubility change mitosis (log2)” value in the series on HeLa Kyoto [4] was -0.0649.

“MWRLVPPKLGRLSRSLKLAALGSLLVLMVLHSPSLLASWQRNELTDRRFLQLNKCPACFGTSWCRRFLNGQVVFEAWGRLRLLDFLNVKNVYFAQYGEPREGGRRRVVLKRLGSQRELAQLDQSICKRATGRPRCDLLQAMPRTEFARLNGDVRLLTPEAVEGWSDLVHCPSQRLLDRLVRRYAETKDSGSFLLRNLKDSERMQLLLTLAFNPEPLVLQSFPSDEGWPFAKYLGACGRMVAVNYVGEELWSYFNAPWEKRVDLAWQLMEIAEQLTNNDFEFALYLLDVSFDNFAVGPRDGKVIIVDAENVLVADKRLIRQNKPENWDVWYESKFDDCDKEACLSFSKEILCARATVDHNYYAVCQNLLSRHATWRGTSGGLLHDPPSEIAKDGRLEALLDECANPKKRYGRFQAAKELREYLAQLSNNVR [C3ORF58]”: the “solubility in G1/S (log2)” value with HeLa Kyoto [1] worked out at 0.0343. In addition, the thermal stability score in the series on HeLa Kyoto [2] (setting [5]) was -0.149; in the series with HeLa Kyoto [2] (cell cycle stage: mitosis), -0.787. In addition, the melting temperature in the series on HeLa Kyoto [3] (cell cycle stage: G1/S) worked out at 53 °C; in the series with HeLa Kyoto [3] (cell cycle stage: mitosis), 52.3 °C. The “solubility change mitosis (log2)” value in the series on HeLa Kyoto [4] was -0.109.
